Experimental findings from publication doi:10.1101/2023.04.15.537002, “Identification of merozoite secreted repertoire and immuno-pharmacological inhibition of a novel host-parasite interaction to block malarial infection” (bioRxiv, 2023) are described below.

The target in test [1] is T1, recombinant PfRhopH3 C-terminal fragment (PfRhopH3C; 617-865 aa) (Plasmodium falciparum, UniProt Q8I395 617-865).
T1 construct: RhopH3 (high molecular weight rhoptry protein 3) of Plasmodium falciparum, C-terminal portion, residues 617-865 (747 bp); also called rPfRhopH3C; rRhopH3C; source: recombinant, codon-optimized gene in pMTSAra, induced by L-arabinose, purified (Ni-NTA)
T1 sequence: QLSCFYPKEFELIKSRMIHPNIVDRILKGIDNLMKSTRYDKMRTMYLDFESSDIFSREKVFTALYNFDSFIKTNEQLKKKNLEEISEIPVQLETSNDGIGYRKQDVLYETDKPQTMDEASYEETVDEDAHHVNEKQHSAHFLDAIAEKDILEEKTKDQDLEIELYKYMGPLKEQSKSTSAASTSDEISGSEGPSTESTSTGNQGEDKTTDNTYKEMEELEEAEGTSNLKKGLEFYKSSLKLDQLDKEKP
Briefly: MST; 14-3-3[…] (10 uM) labelled with NT-647 NHS, titrated with different concentrations of PfRhopH3C. The settings on record: both partners purified.

Test [2] has as its target T1, recombinant PfRhopH3 C-terminal …. The test can be described thus: ELISA; PfRhopH3C (200 ng) coated overnight; overlaid with 14-3-3[…] TBD or full length; detected with anti-14-3-3[…] antibodies, O.D.450. To be noted: both partners purified.

B1: recombinant human 14-3-3[…] (eta), full length (246 aa) (natural protein, UniProt Q04917 1-246, looked up)
chain: MGDREQLLQRARLAEQAERYDDMASAMKAVTELNEPLSNEDRNLLSVAYKNVVGARRSSWRVISSIEQKTMADGNEKKLEKVKAYREKIEKELETVCNDVLSLLDKFLIKNCNDFQYESKVFYLKMKGDYYRYLAEVASGEKKNSVVEASEAAYKEAFEISKEQMQPTHPIRLGLALNFSVFYYEIQNAPEQACLLAKQAFDDAIAELDTLNEDSYKDSTLIMQLLRDNLTLWTSDQQDEEAGEGN
modifications: labelled with amine-reactive dye NT-647 NHS (for MST only)
notes: human 14-3-3 protein eta, gene ID YWHAH, full length, 246 aa (738 bp); the discussion names it eta; also called 14-3-3[…] full length; r14-3-3[…]; source: recombinant, codon-optimized gene in pET-28a(+), induced by IPTG, purified (Ni-NTA)
Take B1: in test [1], the Kd came to 66 nM.

B2: recombinant 14-3-3[…] Target Binding Domain (TBD; 94-246 aa) (domain or fragment, human, UniProt Q04917 94-246, looked up)
chain: ETVCNDVLSLLDKFLIKNCNDFQYESKVFYLKMKGDYYRYLAEVASGEKKNSVVEASEAAYKEAFEISKEQMQPTHPIRLGLALNFSVFYYEIQNAPEQACLLAKQAFDDAIAELDTLNEDSYKDSTLIMQLLRDNLTLWTSDQQDEEAGEGN
notes: also called 14-3-3[…] TBD; source: recombinant, PCR-amplified into pMTSAra, induced by L-arabinose, purified (Ni-NTA)
With B2, the binding result in test [2] is “binds”.
